One assay deals with T1, TNFR1 (Homo sapiens, UniProt P19438).
T1 chain: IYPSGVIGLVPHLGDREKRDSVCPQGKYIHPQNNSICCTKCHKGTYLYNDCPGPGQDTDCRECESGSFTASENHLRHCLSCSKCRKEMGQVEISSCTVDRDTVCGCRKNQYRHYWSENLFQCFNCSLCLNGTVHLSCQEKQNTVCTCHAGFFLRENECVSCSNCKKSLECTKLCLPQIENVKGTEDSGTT
The assay is described as follows: yeast display SC50.

The target in the next assay is TNFR1_mb2. The experiment in a line: SPR. On the technique in general: Surface plasmon resonance follows binding to a sensor surface in real time, without labels.
The target of another assay is TNFR1_mb1. The assay is described as follows: SPR.
A further assay addresses T2, TNFR2 (UniProt P20333 23-212).
T2 chain: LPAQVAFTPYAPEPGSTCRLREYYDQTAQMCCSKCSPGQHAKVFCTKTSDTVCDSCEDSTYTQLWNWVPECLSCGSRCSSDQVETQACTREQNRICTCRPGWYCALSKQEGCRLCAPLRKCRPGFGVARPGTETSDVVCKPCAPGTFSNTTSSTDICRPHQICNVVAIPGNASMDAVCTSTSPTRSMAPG
The assay is described as follows: SPR.

The next assay deals with OX40_mb1. The experiment in a line: SPR.

B1: D40P (designed binder)
chain: MTLQELLREEALRRAEAEAFRYALELLAEKFPEQKEYLLPLAEEIESQIRSLSGVDVEDVRKFLDKEWAWVKELLAEHPAELAEVEAARAARLAELRAEVEAKVAA
For the molecule B1, the “apparent Kd (screen)” value with TNFR1 is 9.41 nM.

B2: L38W (designed binder)
chain: MTLQELLREEALRRAEAEAFRYALELLAEKFPEQKEYWLDLAEEIESQIRSLSGVDVEDVRKFLDKEWAWVKELLAEHPAELAEVEAARAARLAELRAEVEAKVAA
In the case of B2, in the assay with TNFR1, the “apparent Kd (screen)” value is 0.49 nM.

B3: E16N (designed binder)
chain: MTLQELLREEALRRANAEAFRYALELLAEKFPEQKEYLLDLAEEIESQIRSLSGVDVEDVRKFLDKEWAWVKELLAEHPAELAEVEAARAARLAELRAEVEAKVAA
As to B3, the “apparent Kd (screen)” value with TNFR1 was 0.446 nM.

B4: T2N (designed binder)
chain: MNLQELLREEALRRAEAEAFRYALELLAEKFPEQKEYLLDLAEEIESQIRSLSGVDVEDVRKFLDKEWAWVKELLAEHPAELAEVEAARAARLAELRAEVEAKVAA
On to B4, for which the “apparent Kd (screen)” value with TNFR1 was 0.956 nM.

B5: S51L (designed binder)
chain: MTLQELLREEALRRAEAEAFRYALELLAEKFPEQKEYLLDLAEEIESQIRLLSGVDVEDVRKFLDKEWAWVKELLAEHPAELAEVEAARAARLAELRAEVEAKVAA
For B5, the “apparent Kd (screen)” value in the assay with TNFR1 came to 0.653 nM.

B6: E43I (designed binder)
chain: MTLQELLREEALRRAEAEAFRYALELLAEKFPEQKEYLLDLAIEIESQIRSLSGVDVEDVRKFLDKEWAWVKELLAEHPAELAEVEAARAARLAELRAEVEAKVAA
Turning to B6, the “apparent Kd (screen)” value with TNFR1 was 0.539 nM.

B7: S51M (designed binder)
chain: MTLQELLREEALRRAEAEAFRYALELLAEKFPEQKEYLLDLAEEIESQIRMLSGVDVEDVRKFLDKEWAWVKELLAEHPAELAEVEAARAARLAELRAEVEAKVAA
In the case of B7, the “apparent Kd (screen)” value with TNFR1 stood at 0.718 nM.

B8: E25V (designed binder)
chain: MTLQELLREEALRRAEAEAFRYALVLLAEKFPEQKEYLLDLAEEIESQIRSLSGVDVEDVRKFLDKEWAWVKELLAEHPAELAEVEAARAARLAELRAEVEAKVAA
On to B8, for which the “apparent Kd (screen)” value with TNFR1 came to 0.593 nM.

B9: R97A (designed binder)
chain: MTLQELLREEALRRAEAEAFRYALELLAEKFPEQKEYLLDLAEEIESQIRSLSGVDVEDVRKFLDKEWAWVKELLAEHPAELAEVEAARAARLAELAAEVEAKVAA
In the case of B9, the “apparent Kd (screen)” value with TNFR1 was found to be 0.718 nM.

B10: TNFR1 (protein)
chain: LVPHLGDREKRDSVCPQGKYIHPQNNSICCTKCHKGTYLYNDCPGPGQDTDCRECESGSFTASENHLRHCLSCSKCRKEMGQVEISSCTVDRDTVCGCRKNQYRHYWSENLFQCFNCSLCLNGTVHLSCQEKQNTVCTCHAGFFLRENECVSCSNCKKSLECTKLCLPQIENVKGTEDSGTT
For orientation: Kd means a measure of binding affinity in units of concentration. Low values mean a tighter complex, high ones a looser complex. A word on the koff: it is a measure of how fast the partners let go of each other. Read a low koff as slow dissociation. With B10, the Kd was found to be 24.5 nM with TNFR1_mb2 and 29 nM with TNFR1_mb1. Moreover, the results for the koff with TNFR1_mb2 and with TNFR1_mb1 were 0.0773 s⁻¹ and 0.134 s⁻¹, respectively.

B11: TNFR2_mb1 (designed binder)
chain: LNPEQVAKIGAAIDAGRKYLDAKIEEAKKTLTLRTAQALLVIRSQYERAVDTLFTDPSAAEKELAATLATIDRLLKEHPELAAEIKAFIRSTMAEIRALLAASLAA
For the molecule B11, the koff in the assay with TNFR2 was 0.00277 s⁻¹.

B12: OX40 (protein)
chain: LHCVGDTYPSNDRCCHECRPGNGMVSRCSRSQNTVCRPCGPGFYNDVVSSKPCKPCTWCNLRSGSERKQLCTATQDTVCRCRAGTQPLDSYKPGVDCAPCPPGHFSPGDNQACKPWTNCTLAGKHTLQPASNSSDAICEDRDPPATQPQETQGPPARPITVQPTEAWPRTSQGPSTRPVEVPGGRA
In the assay with OX40_mb1, B12 showed a Kd of 30 nM and a koff of 0.033 s⁻¹.

The record behind these values is article PMC12416549 (2024).
